Test results from paper PMC7323458 (Nature chemical biology, 2019).

T1: β-ketoacyl-ACP-synthase I (FabB) (E. coli, UniProt P0A953 1-406)
T1 sequence: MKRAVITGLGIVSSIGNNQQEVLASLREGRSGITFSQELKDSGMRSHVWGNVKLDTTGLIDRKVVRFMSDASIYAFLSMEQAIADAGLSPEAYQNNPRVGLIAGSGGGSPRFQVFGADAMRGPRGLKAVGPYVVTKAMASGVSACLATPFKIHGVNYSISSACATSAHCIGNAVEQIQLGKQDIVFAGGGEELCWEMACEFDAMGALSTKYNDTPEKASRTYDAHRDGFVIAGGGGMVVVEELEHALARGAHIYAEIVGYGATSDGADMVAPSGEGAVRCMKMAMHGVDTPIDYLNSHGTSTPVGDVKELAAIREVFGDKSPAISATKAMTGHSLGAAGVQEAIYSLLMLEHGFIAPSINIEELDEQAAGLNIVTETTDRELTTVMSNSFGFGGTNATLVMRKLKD


Molecular target: T1, β-ketoacyl-ACP-synthase I (FabB)
Assay: NMR titration

Kd [µM]	Binder
37.6	wt C8-AcpP (octanoyl-AcpP) (natural protein, E. coli, amide-linked octanoyl (C8) pantetheine probe on the phosphopantetheine serine (S36); 15N, 2H labelled) MSTIEERVKKIIGEQLGVKQEEVTNNASFVEDLGADSLDTVELVMALEEEFDTEIPDEEAEKITTVQAAIDYINGHQA
167	D38A C8-AcpP (natural protein, E. coli, amide-linked octanoyl (C8) pantetheine probe on the phosphopantetheine serine (S36); 15N, 2H labelled) MSTIEERVKKIIGEQLGVKQEEVTNNASFVEDLGADSLATVELVMALEEEFDTEIPDEEAEKITTVQAAIDYINGHQA
